{"source": "patent US20140142023A1", "about": "“Pharmaceutical Composition for Treating A Metabolic Syndrome” (SANOFI, priority 2011, published 2014)", "molecules": {"B1": {"name": "FGF-21: recombinant human FGF-21 (SEQ ID NO: 2): deletion of amino acids 1-28 of human FGF-21 and additional N-terminal glycine (protein)", "chain": "GHPIPDSSPLLQFGGQVRQRYLYTDDAQQTEAHLEIREDGTVGGAADQSPESLLQLKALKPGVIQILGVKTSRFLCQRPDGALYGSLHFDPEACSFRELLLEDGYNVYQSEAHGLPLHLPGNKSPHRDPAPRGPARFLPLPGLPPAPPEPPGILAPQPPDVGSSDPLSMVGPSQGRSPSYAS", "modifications": "G linked to fragment of human FGF21 from H29 to S209"}}, "key": {"db/db mice [1]": {"system": "db/db mice", "assay": "Fed blood glucose in db/db mice (age of 6 weeks)", "format": "in vivo", "settings": "fed conditions, up to 4 weeks, AVE0010 0.05, FGF-21 0.75 mg/kg/day s.c. or combined", "experimental": "(§1) Female db/db mice (BKS.Cg-m+/+Leprdb/J, age of 6 weeks) were treated with vehicle (PBS), 0.05 mg·kg^−1·day^−1 AVE0010, 0.75 mg·kg^−1·day^−1 recombinant human FGF-21 (SEQ ID NO: 2) or a combined dose of FGF-21 (SEQ ID NO: 2) and AVE0010 (0.75+0.05 mg·kg^−1·day^−1) subcutaneously once daily. Mice were fed ad libitum. Before the first treatment, after one week and 4 weeks blood glucose and HbA1c were measured under fed conditions. After 21 days of treatment an oral glucose tolerance test (OGTT) was initiated. Fasted mice were orally challenged with 2 g·kg^−1 glucose solution and blood glucose was measured at indicated time points."}, "db/db mice [2]": {"system": "db/db mice", "assay": "Oral glucose tolerance test (OGTT) in db/db mice after 21 days", "format": "in vivo", "settings": "after 21 days of treatment, 2 g/kg oral glucose, vs vehicle treated obese control", "experimental": "as §1"}, "mouse 3T3-L1 adipocytes": {"system": "mouse 3T3-L1 adipocytes", "settings": "in the presence and absence of insulin; cited from earlier work"}, "[3]": {"system": "ob/ob mice, db/db mice and obese ZDF rats", "settings": "cited from earlier work"}, "diabetic rhesus monkeys": {"system": "diabetic rhesus monkeys", "settings": "6 weeks; cited from earlier work"}, "[4]": {"settings": "ob/ob and db/db mice and 8 week old ZDF rats, dose dependent (WO03/011213)"}, "[5]": {"settings": "ob/ob, db/db mice and obese ZDF rats (Kharitonenkov et al. 2005)"}}, "note": "Read-outs that look alike come from different tables or passages of the source.", "data": [{"molecule": "B1", "values": [{"measurement": "blood glucose", "setting": "db/db mice [1]", "result": "inhibition of blood glucose increase"}, {"measurement": "glucose tolerance (OGTT)", "setting": "db/db mice [2]", "result": "small improvement"}, {"measurement": "glucose uptake", "setting": "mouse 3T3-L1 adipocytes", "result": "stimulate"}, {"measurement": "mitogenicity, hypoglycemia, or weight gain", "setting": "[3]; any dose tested, diabetic or healthy animals", "result": "did not induce"}, {"measurement": "food intake or body weight/composition", "setting": "[3]; diabetic or lean mice and rats, 2 weeks of administration", "result": "did not affect"}, {"measurement": "fed and fasting blood glucose", "setting": "[3]; [4]", "result": "decrease"}, {"measurement": "glucagon levels", "setting": "[3]; [4]", "result": "decrease"}, {"measurement": "triglycerides", "setting": "[3]; [4]", "result": "decrease"}, {"measurement": "blood glucose", "setting": "[3]; [5]", "result": "significantly lowered"}, {"measurement": "fasting insulin levels", "setting": "[3]; [5]", "result": "decreased"}, {"measurement": "glucose clearance during an oral glucose tolerance test", "setting": "[3]; [5]", "result": "improved"}, {"measurement": "triglycerides", "setting": "[3]; [5]", "result": "significantly lowered"}, {"measurement": "HDL-cholesterol", "setting": "diabetic rhesus monkeys", "result": "increased"}, {"measurement": "LDL-cholesterol", "setting": "diabetic rhesus monkeys", "result": "significantly lowered"}, {"measurement": "body weight", "setting": "diabetic rhesus monkeys", "result": "slightly but significantly decreased"}, {"measurement": "fasting plasma glucose", "setting": "diabetic rhesus monkeys", "result": "reduced"}, {"measurement": "fructosamine", "setting": "diabetic rhesus monkeys", "result": "reduced"}, {"measurement": "glucagone levels", "setting": "diabetic rhesus monkeys", "result": "reduced"}, {"measurement": "hypoglycemia", "setting": "diabetic rhesus monkeys", "result": "not observed"}, {"measurement": "insulin", "setting": "diabetic rhesus monkeys", "result": "reduced"}, {"measurement": "triglyceride", "setting": "diabetic rhesus monkeys", "result": "reduced"}]}]}
